Source: paper PMC5063806, “Data for peptide-binding assay with oriented immobilization of GRP78 in Biacore” (Data in Brief, 2016)

Target: T1, human GRP78, N-His-tagged (human, UniProt P11021 19-654)
T1 construct: GRP78, human; 6-His tag at the N-terminus; also called N-His-tagged GRP78; not shown: His6, N-terminal, kept
Test: SPR; modified protocol, Biacore X: N-His-tagged GRP78 covalently immobilised (EDC/NHS, Ni2+ orientation, about 5000~6000 RU) on chip NTA; running buffer HBS-P pH 7.4 with 1 mM glycine; L-peptide 6.25-100 uM; both peptides at 50 uM in Fig. 3; fit with BIAevaluation 4.1, default settings
Details: both partners purified

T1 sequence (P11021 19-654): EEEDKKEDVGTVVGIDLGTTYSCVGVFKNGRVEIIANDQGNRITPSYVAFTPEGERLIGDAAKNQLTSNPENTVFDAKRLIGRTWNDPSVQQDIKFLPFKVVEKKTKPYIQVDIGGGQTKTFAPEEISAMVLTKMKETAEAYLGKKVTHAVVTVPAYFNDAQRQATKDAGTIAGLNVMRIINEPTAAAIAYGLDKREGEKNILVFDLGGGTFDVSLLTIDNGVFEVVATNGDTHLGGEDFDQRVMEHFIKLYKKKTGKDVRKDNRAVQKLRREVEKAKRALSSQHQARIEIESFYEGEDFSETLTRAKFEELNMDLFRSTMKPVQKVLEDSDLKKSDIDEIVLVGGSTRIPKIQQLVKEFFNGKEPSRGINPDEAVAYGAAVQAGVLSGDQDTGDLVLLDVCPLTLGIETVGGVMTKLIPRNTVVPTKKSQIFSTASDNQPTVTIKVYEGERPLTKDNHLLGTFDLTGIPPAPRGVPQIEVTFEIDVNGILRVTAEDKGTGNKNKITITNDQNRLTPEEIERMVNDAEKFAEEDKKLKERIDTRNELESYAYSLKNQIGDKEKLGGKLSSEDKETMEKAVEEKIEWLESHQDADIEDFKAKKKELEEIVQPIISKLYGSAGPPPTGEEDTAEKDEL

Kd: ~10 µM
B1: L-peptide (RLLDTNRPLLPY) (peptide)
peptide: RLLDTNRPLLPY
notes: Probably synthetic
